According to article PMC5715112 (2017):

B1: VH59 fused to the VP16 activation domain (pEF-VP16, CHO cells) / GAL4 DNA binding domain (DBD)-LEDGF IBD fusion (pM1, CHO cells) [not stated] (parent complex)
chain 1: EVQLLESGGGLVQPGGSLRLSCAASGFTFSTFSMNWVRQAPGKGLEWVSYISRTSKTIYYADSVKGRFTISRDNSKNTLYLQMNSLRAEDTAVYYCARGGWALGDEIPSSFLEFDYWGQGTLVTVS
chain 2: ETSMDSRLQRIHAEIKNSLKIDNLDVNRCIEALDELASLQVTMQQAQKHTEMITTLKKIRRFKVSQVIMEKSTMLYNKFKNMFLVGE

Variants of: B1
Assay: mammalian two-hybrid luciferase reporter assay in CHO cells; 48 h after transfection; Firefly/Renilla luciferase; n = 3; read off a plot
chain 1 L45A showed a response of roughly 1.2. Work on chain 1 Y116A yielded a response of roughly 0.92. chain 1 D115A was tested, and the response was roughly 0.04. In the case of chain 1 Y95A, the response is reported as roughly 0.04. chain 1 W117A showed a response of roughly 0.04.

Variants of: B1
Assay: mammalian two-hybrid luciferase reporter assay in CHO cells; 48 h after transfection; Firefly luciferase normalised to Renilla; read off a plot
Work on chain 2 I21A yielded a response of roughly 0.05. In the case of chain 2 K20A, the response is reported as roughly 0.71. chain 2 L19A was tested, and the response was roughly 0.08. chain 2 L24A was tested, and the response was roughly 0.02. Work on chain 2 K63A yielded a response of roughly 0.35. In the case of chain 2 R61A, the response is reported as roughly 2. With chain 2 V64A the response was roughly 0.12. chain 2 K58A was tested, and the response was roughly 0.09. In the case of chain 2 D22A, the response is reported as roughly 0.79. With chain 2 F62A the response was roughly 0.05.

Variants of: B1
Assay: mammalian two-hybrid luciferase reporter assay in CHO cells; 48 h after transfection; Firefly/Renilla luciferase; n = 3; read off a plot
Remark: another data set of the same source
For chain 1 P108A, the response was roughly 0.04. chain 1 L112A showed a response of roughly 0.05. chain 1 S110A was tested, and the response was roughly 0.04. chain 1 F111A showed a response of roughly 0.04. For chain 1 S109A, the response was roughly 0.46.
